Assay results reported in patent publication US20170015742A1 (published 2017).

Columns and labels:
[1] = biological target: PDGF-BB (UniProt P01127 82-190); experiment: SPR (Biacore), DVD-Ig captured by anti-human Fc, antigen injected
Procedure: (§1) For example, approximately 9000 RU of goat anti-human Fc specific polyclonal antibody (Thermo Fisher Scientific Inc., Rockford, Ill.) diluted in 10 mM sodium acetate (pH 4.5) is directly immobilized across a CM5 research grade biosensor chip using a standard amine coupling kit according to manufacturer's instructions and procedures at 25 μg/ml. Unreacted moieties on the biosensor surface were blocked with ethanolamine. For kinetic analysis, rate equations derived from the 1:1 Langmuir binding model were fitted simultaneously to multiple antigen injections (using global fit analysis) with the use of Scrubber 2 (BioLogic Software), Biacore Biaevaluation 4.0.1 software or Biacore T100 Evaluation software. Purified antibodies or DVD-Ig molecules were diluted in running buffer for capture across goat anti-human Fc reaction surfaces. Antibodies or DVD-Ig molecules to be captured as a ligand (1 μg/ml) were injected over reaction matrices at a flow rate of 10 μl/minute. During the assay, all measurements were referenced against the capture surface alone (i.e., with no captured antibody or DVD-Ig molecule). […] The equilibrium dissociation constant KD (M) of the reaction between antibodies and the target antigen was then calculated from the kinetic rate constants by the following formula: KD=Koff/Kₒₙ. Binding was recorded as a function of time and kinetic rate constants were calculated.

[2] = biological target: VEGF-A (UniProt P15692-4 27-191, limits assumed); experiment: as above
Chain of VEGF-A (P15692 other isoform, or with tags, fused parts or gaps limits assumed): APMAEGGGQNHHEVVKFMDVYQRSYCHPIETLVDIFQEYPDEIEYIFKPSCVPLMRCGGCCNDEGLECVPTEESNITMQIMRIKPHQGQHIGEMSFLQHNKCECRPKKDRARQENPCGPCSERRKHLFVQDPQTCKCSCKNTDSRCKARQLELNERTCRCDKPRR
Procedure: as §1

Chain of PDGF-BB (P01127 82-190): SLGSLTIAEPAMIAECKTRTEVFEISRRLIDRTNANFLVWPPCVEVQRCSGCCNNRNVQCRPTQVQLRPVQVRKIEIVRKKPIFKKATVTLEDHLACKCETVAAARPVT

Binder | Kd [1] [nM] | kon [1] [M⁻¹ s⁻¹] | Kd [2] [nM] | kon [2] [M⁻¹ s⁻¹]
1E3.4_GS_3E2.1 (PR-1612495) (bispecific antibody, human IgG1, kappa, L234A L235A, DVD-Ig: outer hBEW-1E3.4 (VEGF), inner hBFU-3E2.1 (PDGF), linkers GS-H10 / GS-L10(dR); Human IgG1 L234A, L235A, H435A with kappa light chain) heavy: EIQLVQSGSELKKPGASVKVSCKASGYPFTNSGMYWVKQAPGQGLEYMGWINTEAGKPTYADDFKGRFVFSLDTSVSTAYLQISSLKAEDTAVYFCARWGYISDNSYGWFDYWGQGTLVTVSSGGGGSGGGGSEVQLVQSGAEVKKPGSSVKVSCKASGYTFTESYMYWVKQAPGQGLELIGRIDPEDGSTDYVEKFKNKATLTADKSTSTAYMELSSLRSEDTAVYFCARFGARSYFYPMDAWGQGTTVTVSSASTKGPSVFPLAPSSKSTSGGTAALGCLVKDYFPEPVTVSWNSGALTSGVHTFPAVLQSSGLYSLSSVVTVPSSSLGTQTYICNVNHKPSNTKVDKKVEPKSCDKTHTCPPCPAPEAAGGPSVFLFPPKPKDTLMISRTPEVTCVVVDVSHEDPEVKFNWYVDGVEVHNAKTKPREEQYNSTYRVVSVLTVLHQDWLNGKEYKCKVSNKALPAPIEKTISKAKGQPREPQVYTLPPSREEMTKNQVSLTCLVKGFYPSDIAVEWESNGQPENNYKTTPPVLDSDGSFFLYSKLTVDKSRWQQGNVFSCSVMHEALHNAYTQKSLSLSPGK light: ATQLTQSPSSLSASVGDRVTISCRASEGVYSYMHWYQQKPGKQPKLLIYKASNLASGVPSRFSGSGSGTDFTLTISSLQPEDFATYFCHQNWNDPLTFGQGTKLEIKGGSGGGGSGGETVLTQSPATLSLSPGERATLSCRASESVSTLMHWYQQKPGQQPRLLIYGASNLESGVPARFSGSGSGTDFTLTISSLEPEDFAVYFCQQSWNDPWTFGGGTKVEIKRTVAAPSVFIFPPSDEQLKSGTASVVCLLNNFYPREAKVQWKVDNALQSGNSQESVTEQDSKDSTYSLSSTLTLSKADYEKHKVYACEVTHQGLSSPVTKSFNRGEC | 0.012 | 4.5e+07 | 0.0098 | 5.3e+06
3E2.1_GS_9E10.6 (PR-1612501) (bispecific antibody, human IgG1, kappa, L234A L235A, DVD-Ig: outer hBFU-3E2.1 (PDGF), inner hBEW-9E10.6 (VEGF), linkers GS-H10 / GS-L10(dR); Human IgG1 L234A, L235A, H435A with kappa light chain) heavy: EVQLVQSGAEVKKPGSSVKVSCKASGYTFTESYMYWVKQAPGQGLELIGRIDPEDGSTDYVEKFKNKATLTADKSTSTAYMELSSLRSEDTAVYFCARFGARSYFYPMDAWGQGTTVTVSSGGGGSGGGGSEVQLVQSGAEVKKPGSSVKVSCKASGYTFTNYGMYWVRQAPGQGLEWMGWIDTETGRPTYADDFKGRFTFTADKSTSTAYMELSSLRSEDTAVYYCARWSGDTTGIRGPWFAYWGQGTLVTVSSASTKGPSVFPLAPSSKSTSGGTAALGCLVKDYFPEPVTVSWNSGALTSGVHTFPAVLQSSGLYSLSSVVTVPSSSLGTQTYICNVNHKPSNTKVDKKVEPKSCDKTHTCPPCPAPEAAGGPSVFLFPPKPKDTLMISRTPEVTCVVVDVSHEDPEVKFNWYVDGVEVHNAKTKPREEQYNSTYRVVSVLTVLHQDWLNGKEYKCKVSNKALPAPIEKTISKAKGQPREPQVYTLPPSREEMTKNQVSLTCLVKGFYPSDIAVEWESNGQPENNYKTTPPVLDSDGSFFLYSKLTVDKSRWQQGNVFSCSVMHEALHNAYTQKSLSLSPGK light: ETVLTQSPATLSLSPGERATLSCRASESVSTLMHWYQQKPGQQPRLLIYGASNLESGVPARFSGSGSGTDFTLTISSLEPEDFAVYFCQQSWNDPWTFGGGTKVEIKGGSGGGGSGGDIRMTQSPSSLSASVGDRVTITCLASEDIYSDLAWYQQKPGKSPKLLIYNANGLQNGVPSRFSGSGSGTDYTLTISSLQPEDVATYFCQQYNYFPGTFGQGTKLEIKRTVAAPSVFIFPPSDEQLKSGTASVVCLLNNFYPREAKVQWKVDNALQSGNSQESVTEQDSKDSTYSLSSTLTLSKADYEKHKVYACEVTHQGLSSPVTKSFNRGEC | ≤ 0.0053 | ≥ 9e+07 | 0.041 | 570000

The next lines start with the values.

Kd [1] [nM] | kon [1] [M⁻¹ s⁻¹] | Kd [2] [nM] | kon [2] [M⁻¹ s⁻¹] | Binder
≤ 0.0038 | ≥ 9e+07 | 0.17 | 240000 | 3E2.1_GS_4G8.5 (PR-1612499) (bispecific antibody, human IgG1, kappa, L234A L235A, DVD-Ig: outer hBFU-3E2.1 (PDGF), inner hBDB-4G8.5 (VEGF), linkers GS-H10 / GS-L10(dR); Human IgG1 L234A, L235A, H435A with kappa light chain) heavy: EVQLVQSGAEVKKPGSSVKVSCKASGYTFTESYMYWVKQAPGQGLELIGRIDPEDGSTDYVEKFKNKATLTADKSTSTAYMELSSLRSEDTAVYFCARFGARSYFYPMDAWGQGTTVTVSSGGGGSGGGGSEIQLVQSGSELKKPGASVKVSCKASGYTFTNYGMYWVRQAPGQGLEYMGWINTETGKPTYADDFKGRFVFSLDTSVSTAYLQISSLKAEDTAVYFCARTNYYYRSYIFYFDYWGQGTMVTVSSASTKGPSVFPLAPSSKSTSGGTAALGCLVKDYFPEPVTVSWNSGALTSGVHTFPAVLQSSGLYSLSSVVTVPSSSLGTQTYICNVNHKPSNTKVDKKVEPKSCDKTHTCPPCPAPEAAGGPSVFLFPPKPKDTLMISRTPEVTCVVVDVSHEDPEVKFNWYVDGVEVHNAKTKPREEQYNSTYRVVSVLTVLHQDWLNGKEYKCKVSNKALPAPIEKTISKAKGQPREPQVYTLPPSREEMTKNQVSLTCLVKGFYPSDIAVEWESNGQPENNYKTTPPVLDSDGSFFLYSKLTVDKSRWQQGNVFSCSVMHEALHNAYTQKSLSLSPGK light: ETVLTQSPATLSLSPGERATLSCRASESVSTLMHWYQQKPGQQPRLLIYGASNLESGVPARFSGSGSGTDFTLTISSLEPEDFAVYFCQQSWNDPWTFGGGTKVEIKGGSGGGGSGGATQLTQSPSLSASVGDRVTITCRASESVSTHMHWYQQKPGKQPKLLIYGASNLESGVPSRFSGSGSGTDFTLTISSLQPEDFATYFCQQSWNDPFTFGQGTKLEIKRTVAAPSVFIFPPSDEQLKSGTASVVCLLNNFYPREAKVQWKVDNALQSGNSQESVTEQDSKDSTYSLSSTLTLSKADYEKHKVYACEVTHQGLSSPVTKSFNRGEC
0.00023 | 3.8e+07 | 0.18 | 230000 | CL-33675_GS_4G8.5 (PR-1612496) (bispecific antibody, human IgG1, kappa, L234A L235A, DVD-Ig: outer CL-33675 (PDGF), inner hBDB-4G8.5 (VEGF), linkers GS-H10 / GS-L10(dR); Human IgG1 L234A, L235A, H435A with kappa light chain) heavy: EVTLRESGPALVKPTQTLTLTCTFSGFSLSTYGMGVGWIRQPPGKALEWLANIWWDDDKYYNPSLKNRLTISKDTSKNQVVLTMTNMDPVDTATYYCARIESSGPKYSFDYWGQGTMVTVSSGGGGSGGGGSEIQLVQSGSELKKPGASVKVSCKASGYTFTNYGMYWVRQAPGQGLEYMGWINTETGKPTYADDFKGRFVFSLDTSVSTAYLQISSLKAEDTAVYFCARTNYYYRSYIFYFDYWGQGTMVTVSSASTKGPSVFPLAPSSKSTSGGTAALGCLVKDYFPEPVTVSWNSGALTSGVHTFPAVLQSSGLYSLSSVVTVPSSSLGTQTYICNVNHKPSNTKVDKKVEPKSCDKTHTCPPCPAPEAAGGPSVFLFPPKPKDTLMISRTPEVTCVVVDVSHEDPEVKFNWYVDGVEVHNAKTKPREEQYNSTYRVVSVLTVLHQDWLNGKEYKCKVSNKALPAPIEKTISKAKGQPREPQVYTLPPSREEMTKNQVSLTCLVKGFYPSDIAVEWESNGQPENNYKTTPPVLDSDGSFFLYSKLTVDKSRWQQGNVFSCSVMHEALHNAYTQKSLSLSPGK light: EIVLTQSPGTLSLSPGERATLSCRASSGSIWYSFVSWYQQKPGQAPRLLIYADDQRASGIPDRFSGSGSGTDFTLTISRLEPEDFAVYYCQSYGINIDVVFGGGTKVEIKGGSGGGGSGGATQLTQSPSLSASVGDRVTITCRASESVSTHMHWYQQKPGKQPKLLIYGASNLESGVPSRFSGSGSGTDFTLTISSLQPEDFATYFCQQSWNDPFTFGQGTKLEIKRTVAAPSVFIFPPSDEQLKSGTASVVCLLNNFYPREAKVQWKVDNALQSGNSQESVTEQDSKDSTYSLSSTLTLSKADYEKHKVYACEVTHQGLSSPVTKSFNRGEC
≤ 0.0043 | ≥ 9e+07 | 0.019 | 630000 | 3E2.1_GS_9E10.1 (PR-1612500) (bispecific antibody, human IgG1, kappa, L234A L235A, DVD-Ig: outer hBFU-3E2.1 (PDGF), inner hBEW-9E10.1 (VEGF), linkers GS-H10 / GS-L10(dR); Human IgG1 L234A, L235A, H435A with kappa light chain) heavy: EVQLVQSGAEVKKPGSSVKVSCKASGYTFTESYMYWVKQAPGQGLELIGRIDPEDGSTDYVEKFKNKATLTADKSTSTAYMELSSLRSEDTAVYFCARFGARSYFYPMDAWGQGTTVTVSSGGGGSGGGGSEIQLVQSGSELKKPGASVKVSCKASGYTFTNYGMYWVKQAPGQGLEYMGWIDTETGRPTYADDFKGRFVFSLDTSVSTAYLQISSLKAEDTAVYFCARWSGDTTGIRGPWFAYWGQGTLVTVSSASTKGPSVFPLAPSSKSTSGGTAALGCLVKDYFPEPVTVSWNSGALTSGVHTFPAVLQSSGLYSLSSVVTVPSSSLGTQTYICNVNHKPSNTKVDKKVEPKSCDKTHTCPPCPAPEAAGGPSVFLFPPKPKDTLMISRTPEVTCVVVDVSHEDPEVKFNWYVDGVEVHNAKTKPREEQYNSTYRVVSVLTVLHQDWLNGKEYKCKVSNKALPAPIEKTISKAKGQPREPQVYTLPPSREEMTKNQVSLTCLVKGFYPSDIAVEWESNGQPENNYKTTPPVLDSDGSFFLYSKLTVDKSRWQQGNVFSCSVMHEALHNAYTQKSLSLSPGK light: ETVLTQSPATLSLSPGERATLSCRASESVSTLMHWYQQKPGQQPRLLIYGASNLESGVPARFSGSGSGTDFTLTISSLEPEDFAVYFCQQSWNDPWTFGGGTKVEIKGGSGGGGSGGDIRMTQSPSSLSASVGDRVTIECLASEDIYSDLAWYQQKPGKSPKLLIYNANGLQNGVPSRFSGSGSGTDYSLTISSLQPEDVATYFCQQYNYFPGTFGQGTKLEIKRTVAAPSVFIFPPSDEQLKSGTASVVCLLNNFYPREAKVQWKVDNALQSGNSQESVTEQDSKDSTYSLSSTLTLSKADYEKHKVYACEVTHQGLSSPVTKSFNRGEC
